Results: article PMC4928677

Target: GST-Cks2 (Xenopus laevis Cks2α, wild type) (Xenopus laevis) (UniProt Q91879)
Test: pull-down

Sequence of UniProt Q91879 (Q91879 whole entry): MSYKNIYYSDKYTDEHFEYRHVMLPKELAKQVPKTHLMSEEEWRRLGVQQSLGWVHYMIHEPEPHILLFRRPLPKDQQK

EC50 | Substance
120 nM | Hyperphosphorylated Wee1A (Flag-Wee1A-WT phosphorylated in vitro by cyclin B1-Cdk1) (from UniProt Q8AYK6 1-571) (natural protein)
526 nM | Hypophosphorylated Wee1A (Flag-Wee1A-WT incubated with cyclin B1-Cdk1 without ATP) (from UniProt Q8AYK6 1-571) (natural protein)
